What was measured:
Details in all cases: both partners purified
[1] = target: T1, ND1p97wt (N-D1 fragment of wild-type p97, residues 1-480) (UniProt P55072 1-480); test: ITC; VIMPx titrated into p97; iTC200, 25 C; 50 mM Tris pH 8.0, 150 mM NaCl, 2 mM MgCl2, 5% glycerol; 2 mM ADP in both samples; one-site model
T1 construct: p97 (valosin-containing protein, VCP), N-D1 long fragment, residues 1-480, wild type; also called N-D1 long; ND1p97 (residue 1-480)

[2] = target: T2, FLp97wt (full-length wild-type p97, residues 1-806) (UniProt P55072 1-806); test: ITC; VIMPx titrated into p97; iTC200, 25 C; 50 mM Tris pH 8.0, 150 mM NaCl, 2 mM MgCl2, 5% glycerol; 2 mM AMP-PNP in both samples; one-site model
T2 construct: p97 (valosin-containing protein, VCP), full length, residues 1-806, wild type; also called VCP; valosin-containing protein
T2 sequence (P55072 whole entry, the tested form may be a part): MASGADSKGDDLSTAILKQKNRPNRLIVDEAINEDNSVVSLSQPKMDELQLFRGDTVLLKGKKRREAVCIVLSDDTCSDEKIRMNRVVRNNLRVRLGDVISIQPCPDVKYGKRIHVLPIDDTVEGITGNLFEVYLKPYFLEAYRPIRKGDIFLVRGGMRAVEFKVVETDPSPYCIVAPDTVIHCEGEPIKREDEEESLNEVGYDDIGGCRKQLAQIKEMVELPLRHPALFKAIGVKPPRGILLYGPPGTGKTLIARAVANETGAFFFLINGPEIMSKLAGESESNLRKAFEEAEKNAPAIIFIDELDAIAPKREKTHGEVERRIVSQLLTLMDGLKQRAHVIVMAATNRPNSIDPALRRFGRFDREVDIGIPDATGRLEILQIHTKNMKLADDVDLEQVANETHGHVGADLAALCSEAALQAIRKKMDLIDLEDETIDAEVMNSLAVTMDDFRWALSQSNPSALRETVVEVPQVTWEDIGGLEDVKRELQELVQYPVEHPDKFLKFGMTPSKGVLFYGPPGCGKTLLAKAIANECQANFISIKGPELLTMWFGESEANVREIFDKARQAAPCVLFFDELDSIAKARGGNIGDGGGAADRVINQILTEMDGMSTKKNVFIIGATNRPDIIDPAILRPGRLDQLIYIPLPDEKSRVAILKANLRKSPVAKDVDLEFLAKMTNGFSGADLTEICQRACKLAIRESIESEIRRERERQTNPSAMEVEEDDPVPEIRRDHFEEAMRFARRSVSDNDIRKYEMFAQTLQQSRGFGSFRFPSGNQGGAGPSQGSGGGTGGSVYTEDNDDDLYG

[3] = target: T1, ND1p97wt (N-D1 fragment of wild-type …); test: as above
[4] = target: T3, full-length wild-type p97 (^FLp97^wt) (UniProt P55072 1-806); test: pull-down; GST-VIMP variants on glutathione resin, p97 proteins in solution; 20 mM Tris pH 8.0, 150 mM NaCl, 3 mM MgCl2, 10% glycerol, 0.1% Triton X-100, 4 C, 2 mM ATPγS or AMP-PNP (Figures 3b and 4e: AMP-PNP); SDS-PAGE
T3 construct: p97 (valosin-containing protein, VCP), full-length, residues 1-806; also called VCP; valosin-containing protein; source: purified; expression and purification as described previously [13, 42, 44]
T3 sequence (P55072 whole entry, the tested form may be a part): as above

[5] = target: T4, full-length p97 L198W (^FLp97^mt) (UniProt P55072 1-806, L198W); test: as above
T4 construct: p97 (VCP), full-length, residues 1-806, MSP1-associated mutation L198W; also called FLp97 L198W; pathogenic p97 variant L198W; source: purified; expression and purification as described previously [13, 42, 44]
T4 sequence (P55072 whole entry L198W, the tested form may be a part): as the sequence (P55072 whole entry, the tested form may be a part) above, with L198W counted along it

[6] = target: T5, N-D1 fragment of wild-type p97, long form (^ND1p97^wt, residues 1-480) (UniProt P55072 1-480); test: as above
T5 construct: p97 (VCP), N-D1 fragment, residues 1-480 (the form used in pull-down and ITC); also called N-D1 long; source: purified; expression and purification as described previously [13, 42, 44]
T5 sequence (P55072 1-480): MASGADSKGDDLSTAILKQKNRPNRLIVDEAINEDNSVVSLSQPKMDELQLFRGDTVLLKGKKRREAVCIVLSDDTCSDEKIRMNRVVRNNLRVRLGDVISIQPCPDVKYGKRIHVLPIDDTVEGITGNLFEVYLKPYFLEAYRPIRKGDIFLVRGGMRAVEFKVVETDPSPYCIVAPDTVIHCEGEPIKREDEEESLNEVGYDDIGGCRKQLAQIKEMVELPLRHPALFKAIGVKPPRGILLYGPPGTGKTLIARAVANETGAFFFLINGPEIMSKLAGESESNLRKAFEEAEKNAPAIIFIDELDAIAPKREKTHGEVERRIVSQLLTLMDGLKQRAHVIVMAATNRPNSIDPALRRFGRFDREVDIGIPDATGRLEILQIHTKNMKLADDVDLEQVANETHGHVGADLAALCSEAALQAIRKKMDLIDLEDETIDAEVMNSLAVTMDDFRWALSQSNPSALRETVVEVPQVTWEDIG

[7] = target: T6, full-length p97 R155H (^FLp97^mt) (UniProt P55072 1-806, R155H); test: as above
T6 construct: p97 (VCP), full-length, residues 1-806, MSP1-associated mutation R155H; also called FLp97 R155H; pathogenic p97 variant R155H; source: purified; expression and purification as described previously [13, 42, 44]
T6 sequence (P55072 whole entry R155H, the tested form may be a part): as the sequence (P55072 whole entry, the tested form may be a part) above, with R155H counted along it

[8] = target: T7, N-D1 fragment of p97 L198W, long form (^ND1p97^mt, residues 1-480) (UniProt P55072 1-480, L198W); test: as above
T7 construct: p97 (VCP), N-D1 fragment, residues 1-480, pathogenic mutation L198W; also called ND1p97 L198W (1-480); source: purified; expression and purification as described previously [13, 42, 44]
T7 sequence (P55072 1-480 L198W): as the sequence (P55072 1-480) above, with L198W counted along it

[9] = target: T8, N-D1 fragment of p97 A232E, long form (^ND1p97^mt, residues 1-480) (UniProt P55072 1-480, A232E); test: as above
T8 construct: p97 (VCP), N-D1 fragment, residues 1-480, pathogenic mutation A232E; also called ND1p97 A232E (1-480); source: purified; expression and purification as described previously [13, 42, 44]
T8 sequence (P55072 1-480 A232E): as the sequence (P55072 1-480) above, with A232E counted along it

[10] = target: T9, N-D1 fragment of p97 R155H, long form (^ND1p97^mt, residues 1-480) (UniProt P55072 1-480, R155H); test: as above
T9 construct: p97 (VCP), N-D1 fragment, residues 1-480, pathogenic mutation R155H; also called ND1p97 R155H; source: purified; expression and purification as described previously [13, 42, 44]
T9 sequence (P55072 1-480 R155H): as the sequence (P55072 1-480) above, with R155H counted along it

[11] = target: T10, full-length p97 A232E (^FLp97^mt) (UniProt P55072 1-806, A232E); test: as above
T10 construct: p97 (VCP), full-length, residues 1-806, MSP1-associated mutation A232E; also called FLp97 A232E; pathogenic p97 variant A232E; source: purified; expression and purification as described previously [13, 42, 44]
T10 sequence (P55072 whole entry A232E, the tested form may be a part): as the sequence (P55072 whole entry, the tested form may be a part) above, with A232E counted along it

T1 sequence (P55072 1-480): as the sequence (P55072 1-480) above

| Kd [1] [µM] | stoichiometry N [1] | Kd [2] [µM] | stoichiometry N [2] | Kd [3] [µM] | stoichiometry N [3] | binding result [4] | binding result [5] | binding result [6] | binding result [7] | binding result [8] | binding result [9] | binding result [10] | binding result [11] | Binder |
| --- | --- | --- | --- | --- | --- | --- | --- | --- | --- | --- | --- | --- | --- | --- |
| 6.21 ± 0.85 | 1.13 ± 0.06 | 7 ± 0.13 | 0.66 ± 0.08 | 5.52 ± 0.26 | 0.98 ± 0.05 |  |  |  |  |  |  |  |  | VIMPx (VCP-interacting membrane protein, residues 49-122) (domain or fragment, UniProt Q9BQE4 49-122, looked up, VIMP (selenoprotein S), fragment of the cytosolic segment, residues 49-122 (stop codon after M122); also called His-VIMPx; selenoprotein S; source: E. coli BL21(DE3), purified (Ni-NTA, Superdex 75)) QKLSARLRALRQRQLDRAAAAVEPDVVVKRQEALAAARLKMQEELNAQVEKHKEKLKQLEEEKRRQKIEMWDSM |
|  |  |  |  |  |  | binds |  |  |  |  |  |  |  | AVEPDVVVKRQEALAAARLKMQEELNAQVEKHKEKLKQLE (domain or fragment, UniProt Q9BQE4 69-108, looked up, VIMP (selenoprotein S), 40 residues A69-E108; source: held on glutathione resin) [GST-VIMP minimal fragment (A69-E108)] |
|  |  |  |  |  |  | binds | binds | binds | binds | binds | binds | binds | binds | GST-tagged cytosolic segment of VIMP (GST-VIMPc, residues 49-187) (domain or fragment, UniProt Q9BQE4 49-187, looked up, source: held on glutathione resin) QKLSARLRALRQRQLDRAAAAVEPDVVVKRQEALAAARLKMQEELNAQVEKHKEKLKQLEEEKRRQKIEMWDSMQEGKSYKGNAKKPQEEDSPGPSTSSVLKRKSDRKPLRGGGYNPLSGEGGGACSWRPGRRGPSSGG |

Reference: article PMC5725882 (Cell Discovery, 2017)
